Experimental data as given in article PMC11441981.

T1: Prat, Q27601
T1 chain: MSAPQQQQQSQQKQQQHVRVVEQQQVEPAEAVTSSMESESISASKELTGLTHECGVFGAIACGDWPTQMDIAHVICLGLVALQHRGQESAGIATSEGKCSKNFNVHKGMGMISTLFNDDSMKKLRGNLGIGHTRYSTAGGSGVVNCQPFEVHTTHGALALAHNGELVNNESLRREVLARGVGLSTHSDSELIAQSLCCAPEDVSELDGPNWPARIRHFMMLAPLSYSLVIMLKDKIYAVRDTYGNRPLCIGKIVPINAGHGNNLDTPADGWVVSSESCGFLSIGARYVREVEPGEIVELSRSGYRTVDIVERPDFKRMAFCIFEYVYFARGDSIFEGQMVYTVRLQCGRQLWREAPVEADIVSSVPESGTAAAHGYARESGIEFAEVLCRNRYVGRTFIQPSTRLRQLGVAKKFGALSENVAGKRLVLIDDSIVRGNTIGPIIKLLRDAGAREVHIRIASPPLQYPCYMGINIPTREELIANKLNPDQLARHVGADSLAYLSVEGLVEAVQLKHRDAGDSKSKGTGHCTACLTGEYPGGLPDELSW


Experiments:
Test in all cases: GST pull-down from S2 cell lysate with mass spectrometry (volcano plot of spectral intensities)
Ostγ = conditions: three biological replicates, read off a plot
Arf79F = conditions: three biological replicates, read off a plot
Ostδ = conditions: three biological replicates, read off a plot
εCOP = conditions: three biological replicates, read off a plot
CG33303 = conditions: three biological replicates, read off a plot
γCOP = conditions: three biological replicates, read off a plot
Prat, Q27601 = target: T1, Prat, Q27601; conditions: chain shown with the change, three biological replicates, read off a plot

other: Difference Log2(CG9590-GST, Wild-type vs W24,27A mutant) (Ostγ) [log2]	other: Difference Log2(CG9590-GST, Wild-type vs W24,27A mutant) (Arf79F) [log2]	other: Difference Log2(CG9590-GST, Wild-type vs W24,27A mutant) (Ostδ) [log2]	other: Difference Log2(CG9590-GST, Wild-type vs W24,27A mutant) (εCOP) [log2]	other: Difference Log2(CG9590-GST, Wild-type vs W24,27A mutant) (CG33303) [log2]	other: Difference Log2(CG9590-GST, Wild-type vs W24,27A mutant) (γCOP) [log2]	other: Difference Log2(CG9590-GST, Wild-type vs W24,27A mutant) (Prat, Q27601) [log2]	Molecule
1.1	1.4	1.7	5.5	2.5	6.3	–	GST-tagged CG9590 (Drosophila FAM114A) (from UniProt Q9VF39) W24A; W27A
–	–	–	–	–	–	9.8	GST-tagged CG9590 (Drosophila FAM114A), Q9VF39 W24A; W27A (protein) MAKNPKKEEDGGNDWAQSDEDDNADDAGDDDDKFVHVEKEQQPQEKVSSRNDAKGTAENQEKLETPRISAPATASATSSSWGLWGGKLSSVLTTATEGLGTITTQVNQGLNQIIGVPDPEELARINVAEKAEKAAKAPPEENVDDEKESSAAFGLDFVTNLGSKVLNTGLDTLEGIGKKTMTILQDNDPKLMNKRKLLGLEANSPNLSAVLLEAKKEADQMEQSLQQLQLKRQKAQLRFEILFENYCGLVHFEALEILSKESRLKLDTLLDAVSGNARAELQETINEVKELIELEDLDVESEGDYEAEELSERLAATIKDAELGIQFDDIANHWTQSLSWLTSEEATAADLEQAYAKSIHALSEACALEMCKLHKIAELLLVKPHHSTANEVDGVVNLCQQFNGHLQGLSHRFAAVLSGKSETEESKGRVSTFFSEMLSAVQFIEKAYKLFTPILQMGAV
